# Assay results: patent US12630600B2 (MEDIMMUNE LIMITED, priority 2022, dated 2026)
# Starred links: 1 amine or outer side, 2 acyl side, 3 side chain; linkers in the order of their positions; H or OH if unused. Non-standard residues stand in square brackets, D forms with d. Groups on a side chain read outwards from the residue. No end group written: not given here. *: point of attachment. C18 diacid = O=C(O)CCCCCCCCCCCCCCCCC(=O)*; γGlu = O=C(O)[C@H](CCC(=O)[*:2])N[*:1]; αMeF = C[C@](N)(Cc1ccccc1)C(=O)O; NMeQ = CN[C@@H](CCC(N)=O)C(=O)O; AEEA = NCCOCCOCC(=O)O; Aib = CC(C)(N)C(=O)O
# B1: Peptide 522 (peptide)
# peptide: H[Aib]QGTFTSDVSK[αMeF]LDSERAK([AEEA-AEEA-γGlu-C18 diacid])DFVAWLEAGG-OH
# modifications: N-terminus assumed
# SMILES: CC(C)C[C@H](NC(=O)[C@H](Cc1c[nH]c2ccccc12)NC(=O)[C@H](C)NC(=O)[C@@H](NC(=O)[C@H](Cc1ccccc1)NC(=O)[C@H](CC(=O)O)NC(=O)[C@H](CCCCNC(=O)COCCOCCNC(=O)COCCOCCNC(=O)CC[C@H](NC(=O)CCCCCCCCCCCCCCCCC(=O)O)C(=O)O)NC(=O)[C@H](C)NC(=O)[C@H](CCCNC(=N)N)NC(=O)[C@H](CCC(=O)O)NC(=O)[C@H](CO)NC(=O)[C@H](CC(=O)O)NC(=O)[C@H](CC(C)C)NC(=O)[C@](C)(Cc1ccccc1)NC(=O)[C@H](CCCCN)NC(=O)[C@H](CO)NC(=O)[C@@H](NC(=O)[C@H](CC(=O)O)NC(=O)[C@H](CO)NC(=O)[C@@H](NC(=O)[C@H](Cc1ccccc1)NC(=O)[C@@H](NC(=O)CNC(=O)[C@H](CCC(N)=O)NC(=O)C(C)(C)NC(=O)[C@@H](N)Cc1c[nH]cn1)[C@@H](C)O)[C@@H](C)O)C(C)C)C(C)C)C(=O)N[C@@H](CCC(=O)O)C(=O)N[C@@H](C)C(=O)NCC(=O)NCC(=O)O
# B2: Peptide 325 (peptide)
# peptide: HS[NMeQ]GS[αMeF]TSDVSK[αMeF]LDSRAAK([AEEA-AEEA-γGlu-C18 diacid])D[αMeF]VQ[Aib]IANT-NH2
# modifications: N-terminus assumed
# SMILES: CC[C@H](C)[C@H](NC(=O)C(C)(C)NC(=O)[C@H](CCC(N)=O)NC(=O)[C@@H](NC(=O)[C@](C)(Cc1ccccc1)NC(=O)[C@H](CC(=O)O)NC(=O)[C@H](CCCCNC(=O)COCCOCCNC(=O)COCCOCCNC(=O)CC[C@H](NC(=O)CCCCCCCCCCCCCCCCC(=O)O)C(=O)O)NC(=O)[C@H](C)NC(=O)[C@H](C)NC(=O)[C@H](CCCNC(=N)N)NC(=O)[C@H](CO)NC(=O)[C@H](CC(=O)O)NC(=O)[C@H](CC(C)C)NC(=O)[C@](C)(Cc1ccccc1)NC(=O)[C@H](CCCCN)NC(=O)[C@H](CO)NC(=O)[C@@H](NC(=O)[C@H](CC(=O)O)NC(=O)[C@H](CO)NC(=O)[C@@H](NC(=O)[C@](C)(Cc1ccccc1)NC(=O)[C@H](CO)NC(=O)CNC(=O)[C@H](CCC(N)=O)N(C)C(=O)[C@H](CO)NC(=O)[C@@H](N)Cc1c[nH]cn1)[C@@H](C)O)C(C)C)C(C)C)C(=O)N[C@@H](C)C(=O)N[C@@H](CC(N)=O)C(=O)N[C@H](C(N)=O)[C@@H](C)O
# B3: Peptide 342 (peptide)
# peptide: H[Aib]QGTFTSDYSK[αMeF]LDSRRAK([γGlu-C18 diacid])DFVQWLLE[Aib]T-OH
# modifications: N-terminus assumed
# SMILES: CC(C)C[C@H](NC(=O)[C@H](Cc1c[nH]c2ccccc12)NC(=O)[C@H](CCC(N)=O)NC(=O)[C@@H](NC(=O)[C@H](Cc1ccccc1)NC(=O)[C@H](CC(=O)O)NC(=O)[C@H](CCCCNC(=O)CC[C@H](NC(=O)CCCCCCCCCCCCCCCCC(=O)O)C(=O)O)NC(=O)[C@H](C)NC(=O)[C@H](CCCNC(=N)N)NC(=O)[C@H](CCCNC(=N)N)NC(=O)[C@H](CO)NC(=O)[C@H](CC(=O)O)NC(=O)[C@H](CC(C)C)NC(=O)[C@](C)(Cc1ccccc1)NC(=O)[C@H](CCCCN)NC(=O)[C@H](CO)NC(=O)[C@H](Cc1ccc(O)cc1)NC(=O)[C@H](CC(=O)O)NC(=O)[C@H](CO)NC(=O)[C@@H](NC(=O)[C@H](Cc1ccccc1)NC(=O)[C@@H](NC(=O)CNC(=O)[C@H](CCC(N)=O)NC(=O)C(C)(C)NC(=O)[C@@H](N)Cc1c[nH]cn1)[C@@H](C)O)[C@@H](C)O)C(C)C)C(=O)N[C@@H](CC(C)C)C(=O)N[C@@H](CCC(=O)O)C(=O)NC(C)(C)C(=O)N[C@H](C(=O)O)[C@@H](C)O
# B4: Peptide 340 (peptide)
# peptide: H[Aib]QGTFTSDYSK[αMeF]LDSRRAK([γGlu-C18 diacid])DFVQWLL[Aib]E-OH
# modifications: N-terminus assumed
# SMILES: CC(C)C[C@H](NC(=O)[C@H](Cc1c[nH]c2ccccc12)NC(=O)[C@H](CCC(N)=O)NC(=O)[C@@H](NC(=O)[C@H](Cc1ccccc1)NC(=O)[C@H](CC(=O)O)NC(=O)[C@H](CCCCNC(=O)CC[C@H](NC(=O)CCCCCCCCCCCCCCCCC(=O)O)C(=O)O)NC(=O)[C@H](C)NC(=O)[C@H](CCCNC(=N)N)NC(=O)[C@H](CCCNC(=N)N)NC(=O)[C@H](CO)NC(=O)[C@H](CC(=O)O)NC(=O)[C@H](CC(C)C)NC(=O)[C@](C)(Cc1ccccc1)NC(=O)[C@H](CCCCN)NC(=O)[C@H](CO)NC(=O)[C@H](Cc1ccc(O)cc1)NC(=O)[C@H](CC(=O)O)NC(=O)[C@H](CO)NC(=O)[C@@H](NC(=O)[C@H](Cc1ccccc1)NC(=O)[C@@H](NC(=O)CNC(=O)[C@H](CCC(N)=O)NC(=O)C(C)(C)NC(=O)[C@@H](N)Cc1c[nH]cn1)[C@@H](C)O)[C@@H](C)O)C(C)C)C(=O)N[C@@H](CC(C)C)C(=O)NC(C)(C)C(=O)N[C@@H](CCC(=O)O)C(=O)O
# B5: Peptide 339 (peptide)
# peptide: H[Aib]QGTFTSDYSK[αMeF]LD[αMeF]RRAK([γGlu-C18 diacid])DFVQWLL[Aib]T-OH
# modifications: N-terminus assumed
# SMILES: CC(C)C[C@H](NC(=O)[C@H](Cc1c[nH]c2ccccc12)NC(=O)[C@H](CCC(N)=O)NC(=O)[C@@H](NC(=O)[C@H](Cc1ccccc1)NC(=O)[C@H](CC(=O)O)NC(=O)[C@H](CCCCNC(=O)CC[C@H](NC(=O)CCCCCCCCCCCCCCCCC(=O)O)C(=O)O)NC(=O)[C@H](C)NC(=O)[C@H](CCCNC(=N)N)NC(=O)[C@H](CCCNC(=N)N)NC(=O)[C@](C)(Cc1ccccc1)NC(=O)[C@H](CC(=O)O)NC(=O)[C@H](CC(C)C)NC(=O)[C@](C)(Cc1ccccc1)NC(=O)[C@H](CCCCN)NC(=O)[C@H](CO)NC(=O)[C@H](Cc1ccc(O)cc1)NC(=O)[C@H](CC(=O)O)NC(=O)[C@H](CO)NC(=O)[C@@H](NC(=O)[C@H](Cc1ccccc1)NC(=O)[C@@H](NC(=O)CNC(=O)[C@H](CCC(N)=O)NC(=O)C(C)(C)NC(=O)[C@@H](N)Cc1c[nH]cn1)[C@@H](C)O)[C@@H](C)O)C(C)C)C(=O)N[C@@H](CC(C)C)C(=O)NC(C)(C)C(=O)N[C@H](C(=O)O)[C@@H](C)O
# Biological target: human glucagon receptor (human, UniProt P47871)
# Assay: cell-based or functional assay
row,Binder,hGluc-R EC50 (pM)
1,B1,6360
2,B2,> 25500
3,H[dS]QGS[αMeF]TSDVSK[αMeF]LDSRAAK([AEEA-AEEA-γGlu-C18 diacid])D[αMeF]VQ[Aib]IANT [Peptide 331],66.6
4,B3,4830
5,B4,94.7
6,B5,70.3

# Biological target: human GLP-1 receptor (human, UniProt P43220)
# Assay: cell-based or functional assay
row,Binder,hGLP-1R EC50 (pM)
1,B1,508
2,B2,929
3,H[dS]QGS[αMeF]TSDVSK[αMeF]LDSRAAK([AEEA-AEEA-γGlu-C18 diacid])D[αMeF]VQ[Aib]IANT [Peptide 331],62.6
4,B3,220
5,B4,312
6,B5,312
